The DeepSol protein solubility set

Test: soluble on expression in E. coli; label from the status in PepcDB or PDB records

Soluble on expression in E. coli, not soluble:
MGSDKIHHHHHHMEHGTESFWTDIKRYEDILAKDPGSYCFAPLSELYRKVGLLDDAIMTARTGIGQHPEYVGGYMALGRACFEKGERTESRAALEKVVRVTPDNLLAQKLLSQIYVDAGESDLARRCLEIILSLSPGDLESKLMLDAMCRQPRENADRADDLFNEMGAAAAIDLEDESLLEEIEIIEELVDEVVDEEDLAAFTAHAPPPPLAEESFADVLLDEEPVANADVPSPRDVLSTGTVADLYIAQGFPKKALAIYRDLLDADPLNEDIRNRMVDLKKRIDEDEARARESVLAEAVSATDTTAQIQGDLTADREAFKEEAASGFAVESAHEVDIPLEVAVSAESSLNVAEEKEASAAHVVSALEGWLDSIRRIRQCRSVLH
MSTAYEVQCRGLPWEATEQELRDFFGNNGIESLEIPRRNGRTSGDAKVVFTNEEDYNNALKKDREHLGSRYIEVFPAGGAPTRRGDRGERGDRGDRDHYRSRGAPPRDRYSDRGGPRSSGPDSIVRLRGLPFSVTSRDISDFLAPLPIVRDGILLPDQQRARPGGEAYVCFETMESVQIAKQRHMKNIGHRYIEVFEATHRDLSRFAEENDLRVPRFGPPPFASAPQTAPRGAYDPYSQPTDPYRNATDYRRAAEPEDPYARSRAPSVQDYGVRASYDPYTQPAAPVSSYPSQQQPSAGYYDNYAPKTAYESYGRERGPDPRDVRDPRDSRMPDPRDSRALSDPYAAESRYSEYGYESREPYWRGGSGGPPSIGGGVGGGGAPLAPTGRDPYSVGESWANGAGGPGGPPPVSSDRDRYGSGGYASEPYAQREAGGAMRRSEYGRPDDRYSKPEPYGYSRDRDYGAPQNQHFVLRMRGVPFRASEADVYDFFHPIRPNQVELLRDHQFQRPSGDARVIFYNRKDYDDALMKDKQYMGERYIEMIPDNGRY
MGSDKIHHHHHHLGFILDKSGLIPPSIDFPELIKAGREQLHRETDYEQEARHLDMFFKLMAGDKCFEVPRINQEFTTDKTLAMEFKEGVTIDQIVSANYNVKNKAVLNLIDLFFRELFEFNLIQSDPNYANFLFDEKNGKIILLDFGATIPVSSDTLAKFKALFNETLGQNKKSVENAMYQLGILDKGLPSHILNELTDIYWDSTEPIRKNKMFDFGNSNILERMQELSSEIIVHRKKIKIPPFDILSIQRKIGGIFLLARRFEAKINLNKIFEK
MADADLVMTGTVLTVDDARPTAEAIAVADGRVIAVGDRSEVAGLVGANTRVIDLGAGCVMPGFVEAHGHPLLEAVVLSDRFVDIRPVTMRDADDVVAAIRGEVARRGPAGAYLVGWDPLLQSGLGEPTLTWLDSLAPNGPLVIIHNSGHKAYFNSHAAWLNGLTRDTADPKGAKYGRDGNGELDGTAEEIGAILPLLAGVADPSNFGAMLRAECARLNRAGLTTCSEMAFDPGYRPMVEAVRAELTVRLCTYEISNARMCTDATPGQGDDMLRQVGIKIWVDGSPWVGNIDLTFPYLDTPATRAIGVPPGSRGCANYTREQLAEIVGAYFPRGWQIACHVHGDGGVDTILDVYEEALRRNPRDDHRLRLEHVGAIRPDQLRRAAELGVTCSIFVDQIHYWGDVIVDDLFGAQRGSRWMPAGSAVAAGMRISLHNDPPVTPEEPLRNISVAATRVAPSGRVLAPEERLTVEQAIRAQTIDAAWQLFAEDAIGSLQVGKYADMVVLSADPRTVPPEQIADLAVRATFLAGRQVYRRLEHHHHHH
MGDSVLSAIQQTITQRKSANPSESYVAQLLHKGEDKILKKVIEEAGEVLMASKDKNPSHLVYEVADLWFHTMILLTHHDLKAEDVLDELARRQGLSGLVEKAARTES

Soluble on expression in E. coli, soluble:
MGEKLELRLKSPVGAEPAVYPWPLPVYDKHHDAAHEIIETIRWVCEEIPDLKLAMENYVLIDYDTKSFESMQRLCDKYNRAIDSIHQLWKGTTQPMKLNTRPSTGLLRHILQQVYNHSVTDPEKLNNYEPFSPEVYGETSFDLVAQMIDEIKMTDDDLFVDLGSGVGQVVLQVAAATNCKHHYGVEKADIPAKYAETMDREFRKWMKWYGKKHAEYTLERGDFLSEEWRERIANTSVIFVNNFAFGPEVDHQLKERFANMKEGGRIVSSKPFAPLNFRINSRNLSDIGTIMRVVELSPLKGSVSWTGKPVSYYLHTIDRTILENYFSSLKNPKLREEQEAARRRQQRESKSNAATPTKGPEGKVAGPADAPMDSGAEEEKAGAATVKKPSPSKARKKKLNKKGRKMAGRKRGRPKK
SLNSLVSWQLLLFLCATHFGEPLEKVASVGNSRPTGQQLESLGLLAPGEQSLPCTERKPAATARLSRRGTSMSPPPESSGSPQQPGLSAPHSRQIPAPQGAVMVQREKDLPNYNWNSFGLRFGKREAAPGNHGRSAGR
